In assay [1] the target is T1, human B7-H4 extracellular domain (human, UniProt Q7Z7D3 29-258).
T1 construct: Soluble ECD used as SPR analyte; also called huB7-H4 ECD; huB7-H4
T1 sequence: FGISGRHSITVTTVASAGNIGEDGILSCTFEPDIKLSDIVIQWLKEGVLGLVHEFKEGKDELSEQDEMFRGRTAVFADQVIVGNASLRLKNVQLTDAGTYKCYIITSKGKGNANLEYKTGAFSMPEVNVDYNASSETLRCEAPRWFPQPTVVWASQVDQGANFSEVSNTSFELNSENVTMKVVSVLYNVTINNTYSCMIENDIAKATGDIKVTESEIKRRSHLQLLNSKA
Kind of assay: SPR 37 C; IgG1 on anti-hFc chip, ECD analyte.

The target in assay [2] is T2, cyno B7-H4 extracellular domain (cyno, UniProt Q7Z7D3 29-258 (human entry)).
T2 construct: Soluble ECD used as SPR analyte; also called cyB7-H4 ECD; cyB7-H4
T2 sequence: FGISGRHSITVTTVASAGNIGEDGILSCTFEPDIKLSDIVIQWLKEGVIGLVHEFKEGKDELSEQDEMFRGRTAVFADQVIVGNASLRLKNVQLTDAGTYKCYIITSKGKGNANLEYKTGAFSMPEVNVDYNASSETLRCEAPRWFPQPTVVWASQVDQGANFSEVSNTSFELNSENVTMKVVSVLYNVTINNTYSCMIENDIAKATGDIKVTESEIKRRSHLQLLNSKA
Kind of assay: SPR 37 C; IgG1 on anti-hFc chip, ECD analyte.

The target in assay [3] is T3, mouse B7-H4 extracellular domain (mouse, UniProt Q7TSP5 29-258).
T3 construct: Soluble ECD used as SPR analyte; also called muB7-H4 ECD; muB7-H4
T3 sequence: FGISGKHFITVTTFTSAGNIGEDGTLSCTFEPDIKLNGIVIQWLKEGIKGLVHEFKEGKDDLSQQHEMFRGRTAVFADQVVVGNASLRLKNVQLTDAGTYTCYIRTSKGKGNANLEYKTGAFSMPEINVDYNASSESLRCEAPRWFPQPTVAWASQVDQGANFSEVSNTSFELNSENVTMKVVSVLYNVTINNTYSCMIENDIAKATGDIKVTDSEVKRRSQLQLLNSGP
Kind of assay: SPR 37 C; IgG1 on anti-hFc chip, ECD analyte.

The target of assay [4] is T4, human CD3 (delta/epsilon heterodimer) (human, UniProt P07766 23-126; P04234 22-105).
T4 construct: captured on an anti-His chip, so it carries a His tag; also called huCD3
Kind of assay: SPR 25 C; CD3 delta/epsilon on anti-His chip, bispecific analyte.

The target of assay [5] is T5, cyno CD3 (delta/epsilon heterodimer) (cyno, UniProt Q95LI5 22-117; Q95LI8 22-105).
T5 construct: also called cyCD3
The description is as above.

Assay [6] has as its target T2, cyno B7-H4 extracellular domain. Kind of assay: SPR 37 C; bispecific on anti-hFc chip, ECD analyte.
Assay [7] deals with T1, human B7-H4 extracellular domain. Kind of assay: SPR 37 C; bispecific on anti-hFc chip, ECD analyte.
A further assay addresses T6, human B7-H4 on cells (human, UniProt Q7Z7D3 25-282).
T6 sequence (looked up): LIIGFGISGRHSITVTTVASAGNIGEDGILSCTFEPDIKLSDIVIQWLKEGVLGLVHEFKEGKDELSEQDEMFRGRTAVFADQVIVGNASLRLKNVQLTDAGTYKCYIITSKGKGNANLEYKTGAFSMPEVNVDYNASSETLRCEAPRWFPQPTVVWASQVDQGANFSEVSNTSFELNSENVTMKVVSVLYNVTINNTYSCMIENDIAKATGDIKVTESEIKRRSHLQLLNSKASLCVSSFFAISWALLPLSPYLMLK
Kind of assay: cell-based or functional assay.

Assay [8] addresses T2, cyno B7-H4 extracellular domain. Kind of assay: SPR 25 C; bispecific on anti-hFc chip, ECD analyte.
Assay [9] has as its target T3, mouse B7-H4 extracellular domain. Kind of assay: SPR 25 C; bispecific on anti-hFc chip, ECD analyte.
The target of assay [10] is T1, human B7-H4 extracellular domain. Kind of assay: SPR 25 C; bispecific on anti-hFc chip, ECD analyte.
Assay [11] addresses T7, human B7-H4 on human tumor cell lines (human, UniProt Q7Z7D3 25-282).
T7 sequence (looked up): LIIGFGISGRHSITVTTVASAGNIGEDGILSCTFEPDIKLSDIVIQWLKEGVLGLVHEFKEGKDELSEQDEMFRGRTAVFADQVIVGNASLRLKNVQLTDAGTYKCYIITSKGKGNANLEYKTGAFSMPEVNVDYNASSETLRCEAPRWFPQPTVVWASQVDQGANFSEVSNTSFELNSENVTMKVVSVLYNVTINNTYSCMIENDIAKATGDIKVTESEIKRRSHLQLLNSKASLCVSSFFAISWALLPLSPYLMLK
Kind of assay: cell-based or functional assay.

T5 sequence (Q95LI5 22-117, stated change not applied, chain 1 of 2): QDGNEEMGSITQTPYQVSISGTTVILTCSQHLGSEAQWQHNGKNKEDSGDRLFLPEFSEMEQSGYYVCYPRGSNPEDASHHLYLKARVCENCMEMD
T5 sequence (Q95LI8 22-105, stated change not applied, chain 2 of 2): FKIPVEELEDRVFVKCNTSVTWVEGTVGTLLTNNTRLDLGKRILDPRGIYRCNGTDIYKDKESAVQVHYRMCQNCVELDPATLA
T4 sequence (P07766 23-126, stated change not applied, chain 1 of 2): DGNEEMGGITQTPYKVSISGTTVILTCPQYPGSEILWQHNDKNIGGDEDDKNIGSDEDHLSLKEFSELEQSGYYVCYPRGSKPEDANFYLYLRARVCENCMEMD
T4 sequence (P04234 22-105, stated change not applied, chain 2 of 2): as the sequence (Q95LI8 22-105, stated change not applied, chain 2 of 2) above, with V5I, K15N, V20I, T32S, N33D, N34I, A64T, N74S, L83V counted along it

B1: B7-H4 antibody 0052 (antibody, human IgG1, kappa, V domains shown)
VH: QVQLQQWGAGLLKPSETLSLTCAVYGGSFSGYYWNWIRQPPGKGLEWIGEINHSGSTKYNPSLKSRVTISGDTSKNQFSLKLNSVTAADTAVYYCVRGLYNWNVDSWGQGTLVTVSS
VL: DIQMTQSPSSLSASVGDRVTITCRASQGIRNDLGWYQQKPGKAPKRLIYVASSLQSGVPSRFSGSGSGTEFTLTISSLQPEDFATYYCLQHNSYPYTFGQGTKLEIKR
notes: IgG1 mAb format; parental; also called 28D10
A word on the Kd: it is a measure of binding affinity in units of concentration. High values mean weaker binding, low ones tighter binding. The term koff denotes the rate constant with which the complex falls apart. Low readings indicate slow dissociation, high ones fast dissociation. In general, kon refers to the second-order rate constant of association. Read a high kon as fast association. In assay [1], B1 showed a Kd of 12.1 nM, a koff of 0.00565 s⁻¹ and a kon of 467000 M⁻¹ s⁻¹. In assay [2], this molecule had a Kd of 30.7 nM, a dissociation rate constant (koff) of 0.00424 s⁻¹ and a kon of 139000 M⁻¹ s⁻¹. In assay [3], the dissociation constant (Kd) came out at 883 nM, the koff was determined as 0.126 s⁻¹ and the kon came to 143000 M⁻¹ s⁻¹.

B2: B7-H4xCD3 bispecific antibody 0080 (bispecific antibody, IgG2)
heavy 1: QVQLQQWGAGLLKPSETLPLTCAVYGGSFSGYYWNWIRQPPGKGLEWIGEINHSGSATYNPSLKSRVTISVDTSKNHFSLKLSSVTAADTAVYFCARGLYNWNVDHWGQGTLVTVSSASTKGPSVFPLAPCSRSTSESTAALGCLVKDYFPEPVTVSWNSGALTSGVHTFPAVLQSSGLYSLSSVVTVPSSNFGTQTYTCNVDHKPSNTKVDKTVERKCEVECPECPAPPVAGPSVFLFPPKPKDTLMISRTPEVTCVVVAVSHEDPEVQFNWYVDGVEVHNAKTKPREEQFNSTFRVVSVLTVVHQDWLNGKEYKCKVSNKGLPSSIEKTISKTKGQPREPQVYTLPPSREEMTKNQVSLTCEVKGFYPSDIAVEWESNGQPENNYKTTPPMLDSDGSFFLYSKLTVDKSRWQQGNVFSCSVMHEALHNHYTQKSLSLSPGK
light 1: DIQMTQSPSSLSASVGDRVTITCRASQGIRNDLGWYQQKPGKAPKRLIYAASSLQSGVPSRFSGSGSGTEFTLTISSLQPEDFATYYCLQHNSYPRTFGGGTKVEIKRTVAAPSVFIFPPSDEQLKSGTASVVCLLNNFYPREAKVQWKVDNALQSGNSQESVTEQDSKDSTYSLSSTLTLSKADYEKHKVYACEVTHQGLSSPVTKSFNRGEC
heavy 2: EVQLVESGGGLVQPGGSLRLSCAASGFTFSDYYMTWVRQAPGKGLEWVAFIRNQARGYTSDHNPSVKGRFTISRDNAKNSLYLQMNSLRAEDTAVYYCARDRPSYYVLDYWGQGTTVTVSSASTKGPSVFPLAPCSRSTSESTAALGCLVKDYFPEPVTVSWNSGALTSGVHTFPAVLQSSGLYSLSSVVTVPSSNFGTQTYTCNVDHKPSNTKVDKTVERKCRVRCPRCPAPPVAGPSVFLFPPKPKDTLMISRTPEVTCVVVAVSHEDPEVQFNWYVDGVEVHNAKTKPREEQFNSTFRVVSVLTVVHQDWLNGKEYKCKVSNKGLPSSIEKTISKTKGQPREPQVYTLPPSREEMTKNQVSLTCLVKGFYPSDIAVEWESNGQPENNYKTTPPMLDSDGSFFLYSRLTVDKSRWQQGNVFSCSVMHEALHNHYTQKSLSLSPGK
light 2: DIQMTQSPSSLSASVGDRVTITCTSSQSLFNVRSQKNYLAWYQQKPGKAPKLLIYWASTRESGVPSRFSGSGSGTDFTLTISSLQPEDFATYYCKQSYDLFTFGGGTKVEIKRTVAAPSVFIFPPSDEQLKSGTASVVCLLNNFYPREAKVQWKVDNALQSGNSQESVTEQDSKDSTYSLSSTLTLSKADYEKHKVYACEVTHQGLSSPVTKSFNRGEC
notes: Chains 1-2: B7-H4 arm; chains 3-4: CD3 arm; IgG2 EEE/RRR; also called anti-B7-H4 clone 7H7
For B2, the Kd in assay [4] turned out to be 12.7 nM; in [5] it was 13.3 nM; in assay [6], 12.8 nM; in assay [7] it was 6.08 nM; in assay [8] it was 4.29 nM; in assay [9], 74.8 nM. In addition, in assay [10], binding was put at a Kd of 2.39 nM. The koff in [4] was 0.00521 s⁻¹; in assay [5], 0.00493 s⁻¹; in assay [6], 0.00282 s⁻¹; in assay [7] it was 0.00283 s⁻¹; in assay [8], 0.000676 s⁻¹; in assay [9], 0.0138 s⁻¹. In assay [10], this molecule returned a koff of 0.000692 s⁻¹. The kon in [4] turned out to be 411000 M⁻¹ s⁻¹; in [5], 372000 M⁻¹ s⁻¹; in assay [6], 220000 M⁻¹ s⁻¹; in assay [7], 465000 M⁻¹ s⁻¹; in [8] it was 157000 M⁻¹ s⁻¹; in assay [9] it was 189000 M⁻¹ s⁻¹. In assay [10], this molecule came in with a kon of 296000 M⁻¹ s⁻¹. Further, in the assay with human B7-H4 on cells, the “T cell mediated tumor cell killing EC50, HCC1954-Luc” value stood at 36 nM.

B3: B7-H4xCD3 bispecific antibody 1167 (bispecific antibody, IgG2)
heavy 1: EVQLLESGGGLVQPGGSLRLSCAASGFTFSSYAMSWVRQAPGKGLEWVSAISGGGGSTYYADSVKGRFTISRDNSKNTLYLQMNSLRAEDTAVYYCARDIQWYGESTLFDYWGQGTLVTVSSASTKGPSVFPLAPCSRSTSESTAALGCLVKDYFPEPVTVSWNSGALTSGVHTFPAVLQSSGLYSLSSVVTVPSSNFGTQTYTCNVDHKPSNTKVDKTVERKCEVECPECPAPPVAGPSVFLFPPKPKDTLMISRTPEVTCVVVAVSHEDPEVQFNWYVDGVEVHNAKTKPREEQFNSTFRVVSVLTVVHQDWLNGKEYKCKVSNKGLPSSIEKTISKTKGQPREPQVYTLPPSREEMTKNQVSLTCEVKGFYPSDIAVEWESNGQPENNYKTTPPMLDSDGSFFLYSKLTVDKSRWQQGNVFSCSVMHEALHNHYTQKSLSLSPGK
light 1: DIQMTQSPSSLSASVGDRVTITCRASQSTRSHLAWYQQKPGKAPKLLIYKASSLEGGVPSRFSGSGSGTDFTLTISSLQPEDFATYYCQQYGSYSRTFGQGTKVEIKRTVAAPSVFIFPPSDEQLKSGTASVVCLLNNFYPREAKVQWKVDNALQSGNSQESVTEQDSKDSTYSLSSTLTLSKADYEKHKVYACEVTHQGLSSPVTKSFNRGEC
heavy 2: EVQLVESGGGLVQPGGSLRLSCAASGFTFSDYYMTWVRQAPGKGLEWVAFIRNQARGYTSDHNPSVKGRFTISRDNAKNSLYLQMNSLRAEDTAVYYCARDRPSYYVLDYWGQGTTVTVSSASTKGPSVFPLAPCSRSTSESTAALGCLVKDYFPEPVTVSWNSGALTSGVHTFPAVLQSSGLYSLSSVVTVPSSNFGTQTYTCNVDHKPSNTKVDKTVERKCRVRCPRCPAPPVAGPSVFLFPPKPKDTLMISRTPEVTCVVVAVSHEDPEVQFNWYVDGVEVHNAKTKPREEQFNSTFRVVSVLTVVHQDWLNGKEYKCKVSNKGLPSSIEKTISKTKGQPREPQVYTLPPSREEMTKNQVSLTCLVKGFYPSDIAVEWESNGQPENNYKTTPPMLDSDGSFFLYSRLTVDKSRWQQGNVFSCSVMHEALHNHYTQKSLSLSPGK
light 2: DIQMTQSPSSLSASVGDRVTITCTSSQSLFNVRSQKNYLAWYQQKPGKAPKLLIYWASTRESGVPSRFSGSGSGTDFTLTISSLQPEDFATYYCKQSYDLFTFGGGTKVEIKRTVAAPSVFIFPPSDEQLKSGTASVVCLLNNFYPREAKVQWKVDNALQSGNSQESVTEQDSKDSTYSLSSTLTLSKADYEKHKVYACEVTHQGLSSPVTKSFNRGEC
Consider B3, for which, in assay [11], the “EC50 (nM) of Antibody 1167 in inducing redirected T cell killing in vitro, HCC1954 cells (B7-H4 density 20039 per cell)” value is 0.8 nM; the “EC50 (nM) of Antibody 1167 in inducing redirected T cell killing in vitro, MDA-MB-453 cells (B7-H4 density 1198 per cell)” value came out at 8.44 nM; the “EC50 (nM) of Antibody 1167 in inducing redirected T cell killing in vitro, MDA-MB-468 cells (B7-H4 density 83936 per cell)” value is 0.4 nM; the “EC50 (nM) of Antibody 1167 in inducing redirected T cell killing in vitro, MX1 cells (B7-H4 density 108684 per cell)” value worked out at 0.062 nM. In addition, the “EC50 (nM) of Antibody 1167 in inducing redirected T cell killing in vitro, T47D cells (B7-H4 density 6133 per cell)” value in [11] is 0.54 nM.

Source of the values: patent US20220017622A1 (Pfizer, published 2022).
